From patent publication US20210253706A1 come the findings set out here.

The term Kd denotes the equilibrium constant for the complex coming apart. The low end stands for higher affinity, the high end for lower affinity. By EC90 is commonly meant the concentration at which the effect reaches the 90% level. Read a low EC90 as an effect from little substance. As usually defined, the EC10 is the concentration needed for an effect of 10%.

Assay [1] deals with cynomolgus ICOS (Macaca fascicularis (cynomolgus)). In words: Octet (BLI), global 1:1 binding model. (In general: In BLI a coated tip is dipped into the sample, and binding shifts an interference pattern.)
cynomolgus ICOS (Macaca fascicularis (cynomolgus)), sequence (Q9Y6W8 21-140 H101R limits assumed): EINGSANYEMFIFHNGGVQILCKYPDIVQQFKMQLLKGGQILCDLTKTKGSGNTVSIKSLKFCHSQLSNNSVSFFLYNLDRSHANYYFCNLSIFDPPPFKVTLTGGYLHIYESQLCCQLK
Assay [2] has as its target cynomolgus PD-1 (Macaca fascicularis (cynomolgus)). As to the kind of experiment: Octet (BLI), global 1:1 binding model.
The target in another assay is huICOS (UniProt Q9Y6W8). As to the kind of experiment: Octet (BLI), global 1:1 binding model.
huICOS, sequence (Q9Y6W8 21-140 limits assumed): as the sequence (Q9Y6W8 21-140 H101R limits assumed) above, with R81H counted along it
The next assay has as its target human PD-1 (human) (UniProt Q15116). In words: Octet (BLI), global 1:1 binding model.
The target in assay [3] is human PD-1 expressed on cells (human) (UniProt Q15116). As to the kind of experiment: flow cytometry; blocking of 1 µg/mL PD-L1-mFc-Alexa647 binding to HEK 293T cells expressing PD-1 and ICOS.
human PD-1 expressed on cells (human), sequence (Q15116 25-288 limits assumed): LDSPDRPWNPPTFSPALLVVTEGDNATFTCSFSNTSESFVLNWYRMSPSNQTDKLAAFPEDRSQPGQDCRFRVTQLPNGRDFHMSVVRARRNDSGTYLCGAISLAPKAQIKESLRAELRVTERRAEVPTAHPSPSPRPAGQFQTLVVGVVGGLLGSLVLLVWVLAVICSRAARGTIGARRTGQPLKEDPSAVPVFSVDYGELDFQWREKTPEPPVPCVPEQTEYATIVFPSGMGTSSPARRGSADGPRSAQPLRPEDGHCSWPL
Assay [4] concerns the target human ICOS expressed on cells (human) (UniProt Q9Y6W8). As to the kind of experiment: flow cytometry; blocking of 0.5 µg/mL ICOSL-mFc-Alex647 binding to HEK 293T cells expressing PD-1 and ICOS.
In assay [5] the target is human PD-1 expressed on cells (human) (UniProt Q15116). In words: flow cytometry; blocking of 0.1 µg/mL soluble PD-L2 (mFc-Alexa647) binding to HEK 293T cells expressing PD-1 and ICOS. A general note: In flow cytometry, cells or beads pass a laser one at a time.

human ICOS expressed on cells (human), sequence (Q9Y6W8 21-199 limits assumed): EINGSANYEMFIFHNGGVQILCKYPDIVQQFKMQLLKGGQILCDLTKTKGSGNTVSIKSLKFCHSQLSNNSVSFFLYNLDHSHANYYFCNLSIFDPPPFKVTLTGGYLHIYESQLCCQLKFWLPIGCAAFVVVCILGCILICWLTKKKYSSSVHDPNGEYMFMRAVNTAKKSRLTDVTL
cynomolgus PD-1 (Macaca fascicularis (cynomolgus)), sequence (Q15116 other isoform, or with tags, fused parts or gaps limits assumed): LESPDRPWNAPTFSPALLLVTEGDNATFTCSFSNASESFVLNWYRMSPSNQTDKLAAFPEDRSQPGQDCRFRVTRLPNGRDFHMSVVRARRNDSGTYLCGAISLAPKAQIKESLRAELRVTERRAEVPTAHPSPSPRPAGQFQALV
human PD-1 (human), sequence (Q15116 25-170 limits assumed): as the sequence (Q15116 other isoform, or with tags, fused parts or gaps limits assumed) above, with E2D, A10P, L19V, A35T, R75Q, A144T counted along it

On to XmAb23104 (bispecific antibody), for which the Kd in assay [1] came out at 2.6 nM; in assay [2] it was 5.8 nM; in the assay with huICOS, 2.9 nM; with human PD-1 (human), 2.8 nM. The EC90 in assay [3] is 7.1 µg/mL; in assay [4] it was 0.6 µg/mL; in assay [5], 5.3 µg/mL. In addition, the values for the EC10 in assay [4] and in assay [5] were 0.02 µg/mL and 0.003 µg/mL, respectively.
